Laboratory results reported in publication PMC4898720, “NrdR Transcription Regulation: Global Proteome Analysis and Its Role in Escherichia coli Viability and Virulence” (PLoS ONE, 2016).

Molecular target: the molecule itself
Assay: SDS-PAGE of gel filtration fractions with peptide mass fingerprinting; SDS-PAGE of Superdex 200 fractions of un-refolded and refolded NrdR; ~40 kDa band identified by peptide mass fingerprinting; samples boiled 10 min with 5 mM DTT

B1: E. coli NrdR (natural protein, UniProt P0A8D0 1-149, looked up)
chain: MHCPFCFAVDTKVIDSRLVGEGSSVRRRRQCLVCNERFTTFEVAELVMPRVVKSNDVREPFNEEKLRSGMLRALEKRPVSSDDVEMAINHIKSQLRATGEREVPSKMIGNLVMEQLKKLDKVAYIRFASVYRSFEDIKEFGEEIARLED
notes: Transcriptional repressor NrdR of E. coli BW25113, full length ORF cloned between NdeI and XhoI of pET21b; also called EcNrdR; as prepared NrdR; source: E. coli BL21 (DE3), purified (HisTrap Ni column, Superdex 200 gel filtration)
- stoichiometry N: 2
